Laboratory results reported in patent US20110126299A1 (published 2011).

Molecular target: Id(λ2^315)-peptide (amino acids 91 to 101) presented on I-E^d (mouse, UniProt P01904 26-216; P01915 32-225)
Assay: cell-based or functional assay

Chain of Id(λ2^315)-peptide (amino acids 91 to 101) presented on I-E^d (P01904 26-216, chain 1 of 2): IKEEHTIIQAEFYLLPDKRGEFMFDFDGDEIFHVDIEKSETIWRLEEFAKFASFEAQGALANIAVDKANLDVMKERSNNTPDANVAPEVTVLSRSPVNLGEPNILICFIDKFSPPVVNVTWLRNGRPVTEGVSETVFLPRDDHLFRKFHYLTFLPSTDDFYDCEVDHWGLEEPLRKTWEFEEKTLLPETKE
Chain of Id(λ2^315)-peptide (amino acids 91 to 101) presented on I-E^d (P01915 32-225, chain 2 of 2): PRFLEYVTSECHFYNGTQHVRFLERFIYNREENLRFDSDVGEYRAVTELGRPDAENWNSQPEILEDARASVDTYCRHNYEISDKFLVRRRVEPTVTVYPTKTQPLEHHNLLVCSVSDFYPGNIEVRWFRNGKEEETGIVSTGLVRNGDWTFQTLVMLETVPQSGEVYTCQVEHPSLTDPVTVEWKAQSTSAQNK

B1: Id-specific αβ TCR specific for the Id(λ2^315)-peptide (amino acids 91 to 101) presented on I-E^d (TCR, V domains shown)
V domain 1: QQKVQQSPESLIVPEGAMTSLNCTFSDSASQYFAWYRQQSGKAPKALMSIFSNGEKEEGRFTIHLNKASLHFSLHIRDSQPSDSALYLCAVRGPNTGNYKYVFGAGTRLKVIA
V domain 2: EAAVTQSPRNKVAVTGGKVTLSCNQTNNHNNMYWYRQDTGHGLRLIHYSYGAGSTEKGDIPDGYKASRPSQENFSLILELATPSQTSVYFCASGDAGQGHSDYTFGSGTRLLVI
light emissions (NF-κB-luciferase bioluminescence in vivo, 24 hours after transfer of Id^+ splenocytes into RAG2^-/^- mice carrying Id-specific Luc^+ T cells): 4 fold
